According to patent publication US8389575B2, “Control of enzymatic peracid generation” (E.I. du Pont de Nemours and Company, priority 2008, dated 2013):

Experiment: Peracetic acid production by Thermotoga neapolitana perhydrolase, control by bicarbonate buffer concentration
Type: biochemical
Conditions: 100 mM triacetin
Procedure: A cell extract of an E. coli transformant expressing perhydrolase from Thermotoga neapolitana (KLP18/pSW196) was prepared by passing a suspension of cell paste (20 wt % wet cell weight) in 0.05 M potassium phosphate buffer (pH 7.0) containing dithiothreitol (1 mM) twice through a French press having a working pressure of 16,000 psi (˜110 MPa). The crude extract was then centrifuged at 20,000×g to remove cellular debris, producing a clarified cell extract that was assayed for total soluble protein (Bicinchoninic Acid Kit for Protein Determination, Sigma Aldrich catalog #BCA1-KT). The clarified extract was heated for 20 min at 75° C., followed immediately by cooling in an ice/water bath. The resulting mixture was centrifuged to remove precipitated protein, and the supernatant collected and assayed for total soluble protein as before. […] The supernatant was frozen in dry ice and stored at −80° C.
Reactions (10 mL total volume) containing triacetin, hydrogen peroxide and heat-treated, centrifuged cell extract supernatant (prepared as described above) were run at 25° C. using sodium bicarbonate buffer concentrations listed in Tables 7 and 8. A control reaction for each reaction condition was run to determine the concentration of peracetic acid produced by chemical perhydrolysis of triacetin by hydrogen peroxide in the absence of added extract protein. Determination of the concentration of peracetic acid in the reaction mixtures was performed according to the method described by Karst et al., supra. Aliquots (0.040 mL) of the reaction mixture were removed at predetermined times and mixed with 0.960 mL of 5 mM phosphoric acid in water; adjustment of the pH of the diluted sample to less than pH 4 immediately terminated the reaction. The resulting solution was filtered using an ULTRAFREE® MC-filter unit (30,000 Normal Molecular Weight Limit (NMWL), Millipore cat #UFC3LKT 00) by centrifugation for 2 min at 12,000 rpm. An aliquot (0.100 mL) of the resulting filtrate was transferred to L5-mL screw cap HPLC vial (Agilent Technologies, Palo Alto, Calif.; #5182-0715) containing 0.300 mL of deionized water, then 0.100 mL of 20 mM MTS (methyl-p-tolyl-sulfide) in acetonitrile was added, the vials capped, and the contents briefly mixed prior to a 10 min incubation at ca. 25° C. in the absence of light. To each vial was then added 0.400 mL of acetonitrile and 0.100 mL of a solution of triphenylphosphine (TPP, 40 mM) in acetonitrile, the vials re-capped, and the resulting solution mixed and incubated at ca. 25° C. for 30 min in the absence of light. To each vial was then added 0.100 mL of 10 mM N,N-diethyl-m-toluamide (DEET; HPLC external standard) and the resulting solution analyzed by HPLC as described below.
Supelco Discovery C8 column (10-cm×4.0-mm, 5 μm) (cat. #569422-U) w/precolumn Supelco Supelguard Discovery C8 (Sigma-Aldrich; cat #59590-U); 10 microliter injection volume; gradient method with CH3CN (Sigma-Aldrich; #270717) and deionized water at 1.0 mL/min and ambient temperature:
The peracetic acid concentrations produced in 1 min, 5 min and 30 min when using either 250 mM or 100 mM hydrogen peroxide are listed in Table 7 and Table 8, respectively.

B1: Thermotoga neapolitana perhydrolase: acetyl xylan esterase with perhydrolase activity from Thermotoga neapolitana (SEQ ID NO: 14), cell extract of E. coli KLP18/pSW196 (protein, listed as Thermotoga neapolitana)
chain: MAFFDMPLEELKKYRPERYEEKDFDEFWRETLKESEGFPLDPVFEKVDFHLKTVETYDVTFSGYRGQRIKGWLLVPKLAEEKLPCVVQYIGYNGGRGFPHDWLFWPSMGYICFVMDTRGQGSGWMKGDTPDYPEGPVDPQYPGFMTRGILDPGTYYYRRVFVDAVRAVEAAISFPRVDSRKVVVAGGSQGGGIALAVSALSNRVKALLCDVPFLCHFRRAVQLVDTHPYVEITNFLKTHRDKEEIVFRTLSYFDGVNFAARAKVPALFSVGLMDTICPPSTVFAAYNHYAGPKEIRIYPYNNHEGGGSFQAIEQVKFLKRLFEEG
PAA (ppm), 1 min (NaHCO3 0 mM, initial pH 5.0, 1 min, 100 mM H2O2, 50 μg/mL heated extract total protein): 0 ppm
PAA (ppm), 1 min (NaHCO3 0 mM, initial pH 5.0, 1 min, 250 mM H2O2, 50 μg/mL heated extract total protein): 161 ppm
PAA (ppm), 5 min (NaHCO3 0 mM, initial pH 5.0, 5 min, 100 mM H2O2, 50 μg/mL heated extract total protein): 29 ppm
PAA (ppm), 5 min (NaHCO3 0 mM, initial pH 5.0, 5 min, 250 mM H2O2, 50 μg/mL heated extract total protein): 152 ppm
PAA (ppm), 30 min (NaHCO3 0 mM, initial pH 5.0, 30 min, 100 mM H2O2, 50 μg/mL heated extract total protein): 11 ppm
PAA (ppm), 30 min (NaHCO3 0 mM, initial pH 5.0, 30 min, 250 mM H2O2, 50 μg/mL heated extract total protein): 180 ppm
PAA (ppm), 1 min (NaHCO3 1.0 mM, initial pH 6.0, 1 min, 100 mM H2O2, 50 μg/mL heated extract total protein): 167 ppm
PAA (ppm), 1 min (NaHCO3 1.0 mM, initial pH 6.0, 1 min, 250 mM H2O2, 50 μg/mL heated extract total protein): 511 ppm
PAA (ppm), 5 min (NaHCO3 1.0 mM, initial pH 6.0, 5 min, 100 mM H2O2, 50 μg/mL heated extract total protein): 152 ppm
PAA (ppm), 5 min (NaHCO3 1.0 mM, initial pH 6.0, 5 min, 250 mM H2O2, 50 μg/mL heated extract total protein): 610 ppm
PAA (ppm), 30 min (NaHCO3 1.0 mM, initial pH 6.0, 30 min, 100 mM H2O2, 50 μg/mL heated extract total protein): 176 ppm
PAA (ppm), 30 min (NaHCO3 1.0 mM, initial pH 6.0, 30 min, 250 mM H2O2, 50 μg/mL heated extract total protein): 608 ppm
PAA (ppm), 1 min (NaHCO3 2.5 mM, initial pH 6.5, 1 min, 100 mM H2O2, 50 μg/mL heated extract total protein): 291 ppm
PAA (ppm), 1 min (NaHCO3 2.5 mM, initial pH 6.5, 1 min, 250 mM H2O2, 50 μg/mL heated extract total protein): 718 ppm
PAA (ppm), 5 min (NaHCO3 2.5 mM, initial pH 6.5, 5 min, 100 mM H2O2, 50 μg/mL heated extract total protein): 510 ppm
PAA (ppm), 5 min (NaHCO3 2.5 mM, initial pH 6.5, 5 min, 250 mM H2O2, 50 μg/mL heated extract total protein): 1242 ppm
PAA (ppm), 30 min (NaHCO3 2.5 mM, initial pH 6.5, 30 min, 100 mM H2O2, 50 μg/mL heated extract total protein): 488 ppm
PAA (ppm), 30 min (NaHCO3 2.5 mM, initial pH 6.5, 30 min, 250 mM H2O2, 50 μg/mL heated extract total protein): 1179 ppm
PAA (ppm), 1 min (NaHCO3 5.0 mM, initial pH 6.5, 1 min, 100 mM H2O2, 50 μg/mL heated extract total protein): 377 ppm
PAA (ppm), 1 min (NaHCO3 5.0 mM, initial pH 6.5, 1 min, 250 mM H2O2, 50 μg/mL heated extract total protein): 866 ppm
PAA (ppm), 5 min (NaHCO3 5.0 mM, initial pH 6.5, 5 min, 100 mM H2O2, 50 μg/mL heated extract total protein): 955 ppm
PAA (ppm), 5 min (NaHCO3 5.0 mM, initial pH 6.5, 5 min, 250 mM H2O2, 50 μg/mL heated extract total protein): 1894 ppm
PAA (ppm), 30 min (NaHCO3 5.0 mM, initial pH 6.5, 30 min, 100 mM H2O2, 50 μg/mL heated extract total protein): 989 ppm
PAA (ppm), 30 min (NaHCO3 5.0 mM, initial pH 6.5, 30 min, 250 mM H2O2, 50 μg/mL heated extract total protein): 1931 ppm
PAA (ppm), 1 min (NaHCO3 10 mM, initial pH 7.0, 1 min, 250 mM H2O2, 50 μg/mL heated extract total protein): 1042 ppm
PAA (ppm), 5 min (NaHCO3 10 mM, initial pH 7.0, 5 min, 250 mM H2O2, 50 μg/mL heated extract total protein): 2334 ppm
PAA (ppm), 30 min (NaHCO3 10 mM, initial pH 7.0, 30 min, 250 mM H2O2, 50 μg/mL heated extract total protein): 2384 ppm
PAA (ppm), 1 min (NaHCO3 10 mM, initial pH 8.1, 1 min, 100 mM H2O2, 50 μg/mL heated extract total protein): 418 ppm
PAA (ppm), 5 min (NaHCO3 10 mM, initial pH 8.1, 5 min, 100 mM H2O2, 50 μg/mL heated extract total protein): 1035 ppm
PAA (ppm), 30 min (NaHCO3 10 mM, initial pH 8.1, 30 min, 100 mM H2O2, 50 μg/mL heated extract total protein): 1633 ppm
PAA (ppm), 1 min (NaHCO3 25 mM, initial pH 8.1, 1 min, 100 mM H2O2, 50 μg/mL heated extract total protein): 497 ppm
PAA (ppm), 1 min (NaHCO3 25 mM, initial pH 8.1, 1 min, 250 mM H2O2, 50 μg/mL heated extract total protein): 1037 ppm
PAA (ppm), 5 min (NaHCO3 25 mM, initial pH 8.1, 5 min, 100 mM H2O2, 50 μg/mL heated extract total protein): 1319 ppm
PAA (ppm), 5 min (NaHCO3 25 mM, initial pH 8.1, 5 min, 250 mM H2O2, 50 μg/mL heated extract total protein): 2655 ppm
PAA (ppm), 30 min (NaHCO3 25 mM, initial pH 8.1, 30 min, 100 mM H2O2, 50 μg/mL heated extract total protein): 2095 ppm
PAA (ppm), 30 min (NaHCO3 25 mM, initial pH 8.1, 30 min, 250 mM H2O2, 50 μg/mL heated extract total protein): 3503 ppm
